Measured values reported in US20090264354A1 (UNIVERSITY OF UTAH RESEARCH FOUNDATION, published 2009).

Molecular target: the molecule itself
Experiment: anti-Myc immunoprecipitation from co-transfected NIH3T3 lysates, non-reducing Western blot; 58-kD disulfide-bonded homodimer
Text: This example describes the analysis of the protein structure of Penumbra protein. NIH3T3 fibroblasts were co-transfected with pcDNA3.1/Pen-Myc and pEGFP NI/Pen. The latter expressed murine Penumbra (SEQ ID NO:3) as a fusion protein with enhanced green fluorescent protein (EGFP) in its C-terminus. The Pen-Myc fusion protein was first immunoprecipitated from cell lysates using the anti-Myc MAb, Western blotted and sequentially probed with anti-Myc and anti-EGFP antibodies. It appeared that both Pen-Myc/Pen-Myc and Pen-Myc/Pen-EGFP dimers were apparent in the immunoprecipitates under non-reducing conditions and they appeared to dissociate into monomers after reduction indicating they appear to form disulfide-bonded homodimers. It appeared that under reducing conditions, all Pen-Myc fusion proteins existed as 29-kD monomers. In contrast, under non-reducing conditions, it appeared that about half of Pen-Myc protein existed as 58-kD homodimers, while the remaining Pen-Myc protein appeared to exist either as 29-kDa monomers or 89-kDa dimers with Pen-EGFP. […] The same blot was then stripped and reprobed with anti-EGFP antibodies to reveal an apparent ˜60-kD Pen-EGFP monomer and the 89-kD Pen-Myc/Pen-EGFP dimer.

B1: Penumbra-Myc fusion protein (murine Penumbra with C-terminal 11-aa Myc and 6-aa His tags, expressed from pcDNA3.1/Pen-Myc) (other)
chain: MARRPGVPAAYGDEFSFVSPLVKYLLFFFNMLFWVISMVMVAVGVYARLMKHAEAALACLAVDPAILLIVVGVLMFLLTFCGCIGSLRENICLLQTFSLCLTIVFLLQLAAGILGFVFSDKARGKVSEIINNAIVHYRDDLDLQNLIDFGQKKFSCCGGISYRDWSQNMYFNCSEDNPSRERCSVPYSCCLPTPRQAVINTMCGQGMQANDYLEASKVIYTNGCIDKLVNWIHSNLFLLGGVALGLAIPQLVGILLSQVLVNQIKDQIKLQLYNQQHRADPWY
notes: Seen as a 29-kD monomer on reducing gels; also called Pen-Myc fusion protein; Pen-Myc protein; not shown: 11-aa Myc tag from the pcDNA3.1 vector; 6-aa His tag from the pcDNA3.1 vector
- binding result: binds
